From PMC10290953, “A novel ELP1 mutation impairs the function of the Elongator complex and causes a severe neurodevelopmental phenotype” (Journal of Human Genetics, 2023)

Legend:
[1] = system: ELP1 K815T;ELP2;ELP3 (Homo sapiens;Homo sapiens;Homo sapiens); assay: MST; conditions: curve did not reach plateau; authors state actual affinity is likely lower; none (in vitro transcribed); MST: 14 nM Cy5-tRNA, ELP123 from 1.5 uM in serial dilution, 20 mM HEPES pH 7.5, 100 mM NaCl, 5 mM DTT, 0.05% Tween 20; incubated 30 min at 4 C, measured at …
[2] = system: ELP1 (wild type);ELP2;ELP3 (Homo sapiens;Homo sapiens;Homo sapiens); assay: MST; conditions: none (in vitro transcribed); MST: 14 nM Cy5-tRNA, ELP123 from 1.5 uM in serial dilution, 20 mM HEPES pH 7.5, 100 mM NaCl, 5 mM DTT, 0.05% Tween 20; incubated 30 min at 4 C, measured at …
[3] = target: the molecule itself; assay: SEC; purified ELP1_(715-1332) proteins on a S200 10/300 increase gel filtration column with calibration standards; fractions on 12% SDS-PAGE, Coomassie

**Q.** What does the source list for tRNAGlnUUG?
**A.** Kd [1]: 150 nM; Kd [2]: 50 nM

B1: human ELP1 N-terminal truncation, residues 715-1332 (ELP1_(715-1332)) (domain or fragment, UniProt O95163 715-1332, looked up)
chain: NLEVVHHRALVLAQIRKWLDKLMFKEAFECMRKLRINLNLIYDHNPKVFLGNVETFIKQIDSVNHINLFFTELKEEDVTKTMYPAPVTSSVYLSRDPDGNKIDLVCDAMRAVMESINPHKYCLSILTSHVKKTTPELEIVLQKVHELQGNAPSDPDAVSAEEALKYLLHLVDVNELYDHSLGTYDFDLVLMVAEKSQKDPKEYLPFLNTLKKMETNYQRFTIDKYLKRYEKAIGHLSKCGPEYFPECLNLIKDKNLYNEALKLYSPSSQQYQDISIAYGEHLMQEHMYEPAGLMFARCGAHEKALSAFLTCGNWKQALCVAAQLNFTKDQLVGLGRTLAGKLVEQRKHIDAAMVLEECAQDYEEAVLLLLEGAAWEEALRLVYKYNRLDIIETNVKPSILEAQKNYMAFLDSQTATFSRHKKRLLVVRELKEQAQQAGLDDEVPHGQESDLFSETSSVVSGSEMSGKYSHSNSRISARSSKNRRKAERKKHSLKEGSPLEDLALLEALSEVVQNTENLKDEVYHILKVLFLFEFDEQGRELQKAFEDTLQLMERSLPEIWTLTYQQNSATPVLGPNSTANSIMASYQQQKTSVPVLDAELFIPPKINRRTQWKLSLLD
notes: ELP1, Homo sapiens, UniProt O95163, amino acids 715 to 1332; cloned with NcoI and XhoI into pETM11; also called ELP1CT; ELP1 C-terminal construct; source: E. coli BL21 pRARE, purified (NiNTA, S200 gel filtration)
**Q.** Does B1 bind [3]?
**A.** binds

B2: human ELP1_(715-1332)K815T (domain or fragment, UniProt O95163 715-1332, looked up)
chain: NLEVVHHRALVLAQIRKWLDKLMFKEAFECMRKLRINLNLIYDHNPKVFLGNVETFIKQIDSVNHINLFFTELKEEDVTKTMYPAPVTSSVYLSRDPDGNTIDLVCDAMRAVMESINPHKYCLSILTSHVKKTTPELEIVLQKVHELQGNAPSDPDAVSAEEALKYLLHLVDVNELYDHSLGTYDFDLVLMVAEKSQKDPKEYLPFLNTLKKMETNYQRFTIDKYLKRYEKAIGHLSKCGPEYFPECLNLIKDKNLYNEALKLYSPSSQQYQDISIAYGEHLMQEHMYEPAGLMFARCGAHEKALSAFLTCGNWKQALCVAAQLNFTKDQLVGLGRTLAGKLVEQRKHIDAAMVLEECAQDYEEAVLLLLEGAAWEEALRLVYKYNRLDIIETNVKPSILEAQKNYMAFLDSQTATFSRHKKRLLVVRELKEQAQQAGLDDEVPHGQESDLFSETSSVVSGSEMSGKYSHSNSRISARSSKNRRKAERKKHSLKEGSPLEDLALLEALSEVVQNTENLKDEVYHILKVLFLFEFDEQGRELQKAFEDTLQLMERSLPEIWTLTYQQNSATPVLGPNSTANSIMASYQQQKTSVPVLDAELFIPPKINRRTQWKLSLLD
notes: ELP1, Homo sapiens, UniProt O95163, amino acids 715 to 1332, with the patient variant p.Lys815Thr; Patient-derived variant (c.2444A>C; p.Lys815Thr); PDB 5CQR is the wild-type parent; also called ELP1K815T C-terminal construct; source: E. coli BL21 pRARE, purified (NiNTA, S200 gel filtration)
**Q.** Does B2 bind [3]?
**A.** binds
